Assay [1] concerns the target GST fused p85α-CSH2 (C-terminal Src-homology 2 domain of p85α) (UniProt P27986). Put plainly: pull-down; GST-CSH2 (~5 μg, E. coli expressed) incubated with equal amounts of in vitro translated TRβ1 or mutants, in the presence of T3; bound receptor detected by Western blot with anti-TRβ1; band intensities quantified with ImageJ.
In assay [2] the target is T1, GST fused p85α-CSH2 (C-terminal Src-homology 2 domain of p85α) (UniProt P27986 623-706).
T1 construct: C-terminal SH2 (CSH2) domain of the p85α regulatory subunit of PI3K; the limits 623-706 are told of the domain in the discussion, not in the methods of this assay; also called GST–CSH2; CSH2-conjugated to GST; source: E. coli expressed
T1 sequence (P27986 623-706): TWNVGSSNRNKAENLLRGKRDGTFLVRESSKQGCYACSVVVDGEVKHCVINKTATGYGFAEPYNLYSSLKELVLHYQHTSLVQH
The description is as above. As to conditions: one partner purified.

The values that follow come from article PMC4480739, “Oncogenic mutations of thyroid hormone receptor β” (Oncotarget, 2015).

Chain of GST fused p85α-CSH2 (C-terminal Src-homology 2 domain of p85α) (UniProt P27986) (P27986 623-706): as above

Turning to “in vitro translated PV (from UniProt P10828 1-461) (receptor)”, in assay [1], the fold association relative to TRβ1 came out at 3 fold.

B1: in vitro translated AM (receptor, human, UniProt P10828 1-461, looked up)
chain: MTPNSMTENGLTAWDKPKHCPDREHDWKLVGMSEACLHRKSHSERRSTLKNEQSSPHLIQTTWTSSIFHLDHDDVNDQSVSSAQTFQTEEKKCKGYIPSYLDKDELCVVCGDKATGYHYRCITCEGCKGFFRRTIQKNLHPSYSCKYEGKCVIDKVTRNQCQECRFKKCIYVGMATDLVLDDSKRLAKRKLIEENREKRRREELQKSIGHKPEPTDEEWELIKTVTEAHVATNAQGSHWKQKRKFLPEDIGQAPIVNAPEGGKVDLEAFSHFTKIITPAITRVVDFAKKLPMFCELPCEDQIILLKGCCMEIMSLRAAVRYDPESETLTLNGEMAVTRGQLKNGGLGVVSDAIFDLGMSLSSFNLDDTEVALLQAVLLMSSDRPGLACVERIEKYQDSFLLAFEHYINYRKHHVTHFWPKLLMKVTDLRMIGACHCQPLPAHEGGMPTELFPPLFLEVFED
notes: source: in vitro translated (TNT T7 quick coupled kit, Promega)
On to B1, for which the “fold association relative to TRβ1” value in assay [2] was 3 fold.
